Reference: publication PMC6542021
Blank lines part the entries; values can stand above or below the molecule they belong to.

Columns and labels:
[1] = target: FcγRIII CD16 on NK cells (human (endogenous in NK cells of healthy donors)) (UniProt P08637); assay: FACS; NK cells within PBMC
[2] = target: FcγRIII CD16 on NK cells (human (endogenous in NK cells of healthy donors)) (UniProt P08637); assay: flow cytometry on cells; PBMC of healthy donors incubated with the indicated concentrations of NKG2D-Fc-ADCC, followed by an anti-human PE conjugate; EC50 from MFI by a sigmoidal dose-response curve (GraphPad Prism); one representative experiment of three
CD3 (Homo sapiens) = assay: FACS; T cells within PBMC; conditions: other; Only the NKG2D limits and the CH2 changes are printed. UCHT1 VH/VL are taken from the 1XIW scFv complex (entity order VL=3, VH=4 from memory). Human CH1/hinge and human C-kappa are assumed (KappaSelect purification, anti-human PE detection). CH2 end (EU 340) is by convention. G236 (P01857 119) is deleted; EU number = P01857 number + 117. Junction residues are not printed. Fab interchain disulfide; modification not given
CD3 (Homo sapiens), sequence (P07766 23-207, chain 1 of 3): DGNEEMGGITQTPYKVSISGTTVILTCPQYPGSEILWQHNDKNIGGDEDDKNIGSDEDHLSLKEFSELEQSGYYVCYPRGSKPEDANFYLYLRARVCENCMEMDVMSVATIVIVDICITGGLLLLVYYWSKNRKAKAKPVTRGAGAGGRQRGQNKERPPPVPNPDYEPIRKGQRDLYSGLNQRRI
CD3 (Homo sapiens), sequence (P04234 22-171, chain 2 of 3, further chain): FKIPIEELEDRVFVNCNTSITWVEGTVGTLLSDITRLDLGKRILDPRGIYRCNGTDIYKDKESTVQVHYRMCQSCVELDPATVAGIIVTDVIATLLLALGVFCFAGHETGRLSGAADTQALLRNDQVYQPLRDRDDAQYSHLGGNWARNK
CD3 (Homo sapiens), sequence (P09693 23-182, chain 3 of 3, further chain): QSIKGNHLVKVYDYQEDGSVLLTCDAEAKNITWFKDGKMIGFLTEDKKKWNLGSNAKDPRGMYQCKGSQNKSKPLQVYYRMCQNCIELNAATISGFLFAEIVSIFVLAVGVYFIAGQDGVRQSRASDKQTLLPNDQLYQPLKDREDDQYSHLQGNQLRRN

UniProt P08637, sequence (P08637 17-254): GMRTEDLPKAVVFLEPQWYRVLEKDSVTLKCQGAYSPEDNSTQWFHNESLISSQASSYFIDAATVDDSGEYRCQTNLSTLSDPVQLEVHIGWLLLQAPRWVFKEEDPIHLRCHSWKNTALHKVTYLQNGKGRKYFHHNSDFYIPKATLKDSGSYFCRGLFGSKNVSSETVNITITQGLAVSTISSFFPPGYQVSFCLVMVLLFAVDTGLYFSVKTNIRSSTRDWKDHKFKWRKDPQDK

- EC50 [1]: 2.2 nM
Molecule: NKG2D-CD16 bispecific fusion protein (from UniProt P26718 78-216)

- EC50 [2]: 20 nM
Molecule: NKG2D-Fc-ADCC fusion protein (from UniProt P26718 73-216) (Fc fusion)

- EC50 (CD3 (Homo sapiens)): 2.1 nM
B1: NKG2D-CD3 bispecific fusion protein, P26718 78-216 (protein)
chain 1: EVQLQQSGPELVKPGASMKISCKASGYSFTGYTMNWVKQSHGKNLEWMGLINPYKGVSTYNQKFKDKATLTVDKSSSTAYMELLSLTSEDSAVYYCARSGYYGDSDWYFDVWGQGTTLTVFSASTKGPSVFPLAPSSKSTSGGTAALGCLVKDYFPEPVTVSWNSGALTSGVHTFPAVLQSSGLYSLSSVVTVPSSSLGTQTYICNVNHKPSNTKVDKKVEPKSCDKTHTSPPSPAPPVAGPSVFLFPPKPKDTLMISRTPEVTCVVVGVSHEDPEVKFNWYVDGVEVHNAKTKPREEQYQSTYRVVSVLTVLHQDWLNGKEYKCKVSNKQLPSPIEKTISKAKFLNSLFNQEVQIPLTESYCGPCPKNWICYKNNCYQFFDESKNWYESQASCMSQNASLLKVYSKEDQDLLKLVKSYHWMGLVHIPTNGSWQWEDGSILSPNLLTIIEMQKGDCALYASSFKGYIENCSTPNTYICMQRTV
chain 2: MDIQMTQTTSSLSASLGDRVTISCRASQDIRNYLNWYQQKPDGTVKLLIYYTSRLHSGVPSKFSGSGSGTDYSLTISNLEQEDIATYFCQQGNTLPWTFAGGTKLEIKRTVAAPSVFIFPPSDEQLKSGTASVVCLLNNFYPREAKVQWKVDNALQSGNSQESVTEQDSKDSTYSLSSTLTLSKADYEKHKVYACEVTHQGLSSPVTKSFNRGEC
